Sequences and labels used below:
T1: native CEMIP/KIAA1199 expressed on the surface of human cancer cells (human, UniProt Q8WUJ3 31-1361)
T1 sequence: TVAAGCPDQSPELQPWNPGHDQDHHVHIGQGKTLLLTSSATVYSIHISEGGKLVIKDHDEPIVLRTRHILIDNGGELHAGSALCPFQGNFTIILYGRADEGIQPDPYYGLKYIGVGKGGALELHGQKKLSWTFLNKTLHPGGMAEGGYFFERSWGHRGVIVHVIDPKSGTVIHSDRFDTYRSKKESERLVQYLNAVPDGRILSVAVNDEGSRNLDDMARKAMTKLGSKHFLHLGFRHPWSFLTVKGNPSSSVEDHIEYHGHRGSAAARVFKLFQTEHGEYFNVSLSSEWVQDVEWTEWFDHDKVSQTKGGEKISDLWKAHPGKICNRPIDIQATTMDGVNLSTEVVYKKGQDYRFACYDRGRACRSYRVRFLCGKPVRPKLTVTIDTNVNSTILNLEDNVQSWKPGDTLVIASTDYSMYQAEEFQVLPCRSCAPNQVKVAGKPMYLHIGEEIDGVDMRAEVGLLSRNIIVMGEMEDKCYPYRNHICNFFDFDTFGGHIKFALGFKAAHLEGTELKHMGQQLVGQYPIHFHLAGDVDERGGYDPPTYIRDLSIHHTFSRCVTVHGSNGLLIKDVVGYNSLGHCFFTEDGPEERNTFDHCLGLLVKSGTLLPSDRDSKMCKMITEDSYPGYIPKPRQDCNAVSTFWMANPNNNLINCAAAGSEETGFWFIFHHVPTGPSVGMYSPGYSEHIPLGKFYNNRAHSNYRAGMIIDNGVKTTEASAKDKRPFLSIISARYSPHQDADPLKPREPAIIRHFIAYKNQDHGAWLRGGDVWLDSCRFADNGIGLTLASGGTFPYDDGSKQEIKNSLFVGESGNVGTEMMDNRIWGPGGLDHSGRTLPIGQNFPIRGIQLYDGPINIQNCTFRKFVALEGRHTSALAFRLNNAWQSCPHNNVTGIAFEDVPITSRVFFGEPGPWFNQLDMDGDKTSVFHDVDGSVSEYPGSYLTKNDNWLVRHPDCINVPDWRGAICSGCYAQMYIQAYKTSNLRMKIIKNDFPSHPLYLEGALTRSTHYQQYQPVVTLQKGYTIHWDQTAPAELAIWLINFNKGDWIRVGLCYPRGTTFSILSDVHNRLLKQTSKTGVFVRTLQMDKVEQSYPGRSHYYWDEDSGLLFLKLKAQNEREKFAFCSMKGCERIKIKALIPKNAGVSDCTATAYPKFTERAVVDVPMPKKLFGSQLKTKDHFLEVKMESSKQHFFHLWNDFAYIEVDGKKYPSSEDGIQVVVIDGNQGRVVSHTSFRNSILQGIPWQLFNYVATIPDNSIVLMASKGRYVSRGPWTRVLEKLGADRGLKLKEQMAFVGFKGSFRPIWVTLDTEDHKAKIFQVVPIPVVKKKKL

T2: purified KIAA1199/CEMIP protein (aa 1-649) (human, UniProt Q8WUJ3 31-649)
T2 construct: also called recombinant KIAA1199/CEMIP protein
T2 sequence: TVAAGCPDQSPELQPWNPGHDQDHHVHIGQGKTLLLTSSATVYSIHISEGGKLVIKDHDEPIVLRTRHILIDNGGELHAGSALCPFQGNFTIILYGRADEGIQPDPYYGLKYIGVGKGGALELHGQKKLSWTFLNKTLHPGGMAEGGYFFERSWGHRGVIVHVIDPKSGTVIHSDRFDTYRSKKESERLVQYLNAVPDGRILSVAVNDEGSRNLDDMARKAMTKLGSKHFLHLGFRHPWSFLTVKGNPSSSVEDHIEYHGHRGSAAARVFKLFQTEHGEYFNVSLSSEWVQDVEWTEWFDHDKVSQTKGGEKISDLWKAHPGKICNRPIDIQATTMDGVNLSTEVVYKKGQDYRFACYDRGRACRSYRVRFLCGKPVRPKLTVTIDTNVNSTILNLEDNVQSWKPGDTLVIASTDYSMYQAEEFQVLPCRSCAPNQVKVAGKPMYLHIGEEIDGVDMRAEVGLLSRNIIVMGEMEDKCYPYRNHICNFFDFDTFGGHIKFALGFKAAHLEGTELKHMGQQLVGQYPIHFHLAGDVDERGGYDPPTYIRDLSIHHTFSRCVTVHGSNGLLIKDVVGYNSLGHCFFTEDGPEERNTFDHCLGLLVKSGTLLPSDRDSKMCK

B1: 07F11C02 (cAb4853) (antibody, mouse IgG2a, kappa, V domains shown)
VH: DVQLVESGGGLVQPGGSRKLSCAASGFAFSSFGMHWVRQAPERGLEWVAYISSASNTIYYADTVKGRFTISRDNPKSTLFLQMTSLRSEDTAIYYCAKRDWDLYAMDYWGQGTSVTVSS
VL: DIVMTQSQKFLSTSVGDRVTITCKASQNVGTAVAWYQQKPGQSPELLIYSASNRHTGVPARFTGSGSGTDFTLTITNMQSEDLADYFCQQYSSSPTFGGGTKLESKR
B2: 12D08 (cAb5777) (antibody, mouse IgG2a, kappa, V domains shown)
VH: EVQLQQSGAELVKPGASVKLSCTASGFNIKDTYMHWVKQRPEQGLIWIGNIDPANGHTKYAPKFQGKATITADTSSNTAYLQLSSLTSEDTAVYYCARSNDYDVDFDYWGQGTTLTVSS
VL: DIVMSQSPSSLAVSAGEKVTMSCKSSQSLLNSRTRKNYLAWYQQKPGQSPKLLIYWASTRESGVPDRFTGSGSGTDFSLTISSVQAEDLAVYYCKQSYNLYTFGGGTKLEIKR
notes: Mouse monoclonal antibody from a hybridoma (supernatant, later purified)
B3: 12A12 (cAb5776) (antibody, mouse IgG1, kappa, V domains shown)
VH: EVQLQQSGPELVKPGVSMKISCKASGYSFTAYTMNWVKQSHGENLEWIGLINPYNGGTTYNQKFKGKATLTVDKSSSTAYMELLSLTSEDSAVYYCASYDYGYAMDYWGQGTSVTVSS
VL: DVLMTQTPLSLPVSLGDQASISCRSSQSIVHRSGNTYLEWYLQKPGQSPKLLIYKVSNRFSGVPDRFSGSGSGTDFTLKISRVEAEDLGVYYCFQGSHVPWTFGGGTKLEIKR
notes: as for B2
B4: 12D02 (cAb5775) (antibody, mouse IgG1, kappa, V domains shown)
VH: B3 VH with V16A
VL: B3 VL with S33N
notes: as for B2
B5: 13G04 (cAb5778) (antibody, mouse IgG1, kappa, V domains shown)
VH: EVHLQQSGPELVKPGASMKISCKASGYSFTAYTMNWVKQSHGKNLEWIGLINPYNGGTTYNQKFKGKATLTVDKSSSTAYMELLSLTSEDSAVYYCASYYGGRGWYFDVWGAGTSVTVSS
VL: DIVLTQSPASLAVSLGQRATISCRASKSVSTSGYSYVHWYQQKPGQPPKLLIYLASNLESGVPARFSGSGSGTDFTLNIHPVEEEDAATYYCQNSRELPYTFGGGTKLEMKR
notes: as for B2

Numbering of substitutions follows the chain as printed.

The target of one test is T1, native CEMIP/KIAA1199 expressed on the …. Description: cell-based or functional assay.
As for B1, the “GFP+ parental MDA-MB231 cells on the slice, 3D organotypic brain slice assay, CEMIP-positive exosomes pre-incubated with antibody” value was 6 fold decrease.

The target is the same in a further test. As to the kind of experiment: flow cytometry on MKN45 cells. (In general: In flow cytometry, cells or beads pass a laser one at a time.)
Consider B2, for which the binding result was “binds”.
On the same count and under the same terms, next, B3: “binds”; B4: “binds”.
The same measure, in the same setting: next, B5: “binds”.

Another test deals with T2, purified KIAA1199/CEMIP protein (aa …). Description: ELISA on recombinant CEMIP, purified antibody. A general note: In an ELISA, binding on a coated surface is turned into a signal by an enzyme label.
Turning to B2, the binding result is listed as “binds”.
Take B3: the binding result is recorded as “binds”.
Same read-out and setting: the same measure for B4: “binds”; for B5: “binds”.

(Values after patent US20230391890A1 (CORNELL UNIVERSITY, published 2023).)
